The target of the test is SARS-CoV2 Spike protein (ECD, His & Flag Tag) (GenScript, Z03481) (135 kDa) (SARS-CoV2 virus, UniProt P0DTC2 14-1213).

B1: purified recombinant 7G7.2 antibody (antibody, human IgG1, kappa)
heavy: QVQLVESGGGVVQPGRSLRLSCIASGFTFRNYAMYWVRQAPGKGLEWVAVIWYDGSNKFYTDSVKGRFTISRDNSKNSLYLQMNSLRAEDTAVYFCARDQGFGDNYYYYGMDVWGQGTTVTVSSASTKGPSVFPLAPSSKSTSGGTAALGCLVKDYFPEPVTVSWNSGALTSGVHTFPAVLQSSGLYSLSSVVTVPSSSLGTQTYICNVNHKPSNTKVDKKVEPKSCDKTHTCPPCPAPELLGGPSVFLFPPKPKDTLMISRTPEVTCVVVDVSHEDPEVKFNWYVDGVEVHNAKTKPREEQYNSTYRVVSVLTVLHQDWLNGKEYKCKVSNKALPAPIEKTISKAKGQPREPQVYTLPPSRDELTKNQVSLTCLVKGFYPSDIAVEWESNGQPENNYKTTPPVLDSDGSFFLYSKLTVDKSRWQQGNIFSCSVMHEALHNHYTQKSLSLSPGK
light: SYELTQPPSVSVSPGQTARISCSGDALPKEYAYWYQQKPGQAPVLVIYKDSERPSGIPERFSGSSSGTTVTLTISGVQAEDEADYYCQLADSSMHYVVFGGGTKLTVLRTVAAPSVFIFPPSDEQLKSGTASVVCLLNNFYPREAKVQWKVDNALQSGNSQESVTEQDSKDSTYSLSSTLTLSKADYEKHKVYACEVTHQGLSSPVTKSFNRGEC
As a reminder, the Kd is the constant that tells how readily two partners part at equilibrium. B1 registered a Kd of 1.55 nM.

B2: purified recombinant 7G7.1 antibody (antibody, human IgG1, lambda)
heavy: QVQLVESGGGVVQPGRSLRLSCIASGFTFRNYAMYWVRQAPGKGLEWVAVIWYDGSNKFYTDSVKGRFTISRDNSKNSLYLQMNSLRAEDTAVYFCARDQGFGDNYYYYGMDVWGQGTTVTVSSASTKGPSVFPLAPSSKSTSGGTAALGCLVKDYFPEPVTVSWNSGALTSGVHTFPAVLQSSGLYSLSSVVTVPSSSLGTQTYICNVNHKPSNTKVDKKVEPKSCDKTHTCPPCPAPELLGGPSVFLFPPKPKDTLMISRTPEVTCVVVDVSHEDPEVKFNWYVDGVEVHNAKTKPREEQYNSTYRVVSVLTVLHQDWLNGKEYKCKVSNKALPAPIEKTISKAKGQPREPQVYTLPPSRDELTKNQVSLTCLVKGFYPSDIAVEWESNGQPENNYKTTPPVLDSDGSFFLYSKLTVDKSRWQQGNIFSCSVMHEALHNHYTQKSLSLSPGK
light: SYELTQPPSVSVSPGQTARISCSGDALPKEYAYWYQQKPGQAPVLVIYKDSERPSGIPERFSGSSSGTTVTLTISGVQAEDEADYYCQLADSSMHYVVFGGGTKLTVLGQPKAAPSVTLFPPSSEELQANKATLVCLISDFYPGAVTVAWKADSSPVKAGVETTTPSKQSNNKYAASSYLSLTPEQWKSHRSYSCQVTHEGSTVEKTVAPTECS
B2 came in with an equilibrium dissociation constant (Kd) of 2.04 nM.

For the origin of these results see patent WO2022138911A1 (dated 2022).
